Assay results published in the DeepSol protein solubility set.

Test: soluble on expression in E. coli; label from the status in PepcDB or PDB records

Sequence	soluble on expression in E. coli
MSLQLDEYLRQLAPSMTQWRRDFHLHAESGWLEFRTASKVADILDGLGYQLALGRDVIDADSRMGLPDEETLARAFERAREQGAPERWLPAFEGGFAGVVATLDTGRPGPTLAFRVDMDALDLNEQHDDSHRPHRDHFASCNAGMMHACGHDGHTAIGLGLAHVLKQYAAQLNGVIKLIFQPAEEGTRGARAMVAAGVVDDVDYFTAIHIGTGVPAGTVVCGGDNFMATTKFDVQFSGVAAHAGGKPEDGRNALLAAAQAALGLHAIPPHSAGASRVNVGVMQAGTGRNVVPSSALLKVETRGESEAINQYVFERAQHVVAGAAAMYEARYELRMMGAATASAPSPAWVDYLREQAARVPGVQQAVDRIAAPAGSEDATLMMARVQARGGLASYMIFGTELSAGHHNEKFDFDESVMAVAVETLARVALNFPWQRGVEGHHHHHH	soluble
MSLQLEYPLTNHMKRNMVLTKENQVIAYYRIRSETVGLTDFEKKRKTKKKVARTLKRLQENEGFEIVLLPVNADIRGKMGGMRQLVDKENHSVAVDKLMKTAQYLENEIGMVYEYIWLIGVPLVKKERSIDIKETFSTALNNLSEKVVKGLGLEVGVAEDWEEAYKDQEQEVYQNLSELLVERLTEDELYYYQAYQFLNNIQHEKKELLTSQNLDNLLANKITPFRGGLELSNEFGKSYIAHLPLGDCGVTIDGNHLLELVQKMSYPVSVKLQAGFAETKGQLALSGRSARARTRTKNIMEEAHLAGSKQKRKIVEGQHSLDDLDQKIDDDIPIIDWKAVLVISGNSKKQLRERKKNLMNRLDSLGIPLIRATFDNVYLFQATLLGNFQRFSTSNWQHTSTLETFSELNFFTSLHAGTKTGFYLGRVDATLEEKESRKQIVSGSKNIVYMNLLLANKQNIEGKKTNNPHWLVSGDTGNGKSVFSKWLFLYSSLLDVKVLYIDPKKEVRQQFMRTINDPEYQRKYPLDVAFIKTFNFVTLDVRKKENHGVLDPIVLFDETEAIATAKAMLNNINEDKWKMPHKTAINETVAEVVAERKAGKQVGFWHVIERLISHSEKDVHEMGRFLLSTIKGSILELAFSHGEVEGLSFEKKVTILEIEDLDLPTDRHDELDENQRLSVTLMFALGTFCSKFGSRNRKEETVTFFDEAWIFQSSPEGQKILKSMKRIGRSFNNFMVLITQSVNDVLDNGDGTGFGTVVCFDEVDNREGILRYLKLPVNEINLKWVSNMIQGQCLMKDMFNQVNRIVIDVIFEEWLELFETVDEGHHHHHH	soluble
MSLQNLSPTQREILLALTDLYNRQKRMIKSKEVADIIGKDEGTVRNIILSLKVLGLVESKPGPNGGYMPTLKAYEIINNPTLTPILDKLNLYKGMIETDIKVENIEIIDITNPSANRVLLKVEGDLRKLKIGDAVRLGPTPYSRLVIEGLILHLDENSKEIVVDVKRMISIPKEKVKNLISKKLIALKPETSLREASMIFYKEAIRGAPVINQDEKVVGILTTADIIKAFFEGNYTAKVSDYMKTNVISINENEDLLDAIRKMIIYNVGRLLVLDSNNKAVGIVTRTDILRSIAGLEGLWTTEGHHHHHH	soluble
MSLQPAPFLILDDDDVFAQTLARALTRRGFAPQIAHTGGEALSLARQTPFAYVTVDLHLAASDRGLMPHGGTDSGLHWIAPLRQALPEARMLVLTGYASIATAVQAVKLGADEYLAKPANVDSILLALQVGVSEAVAEQTMENPAPLSVARLEWEHIQRVLSEHGGNISATARALNMHRRTLQRKLGKRPVAEGHHHHHH	soluble
MSLQSKTAKLPDNDRNRPLIQTFNDAQQKVWFDDALLHEDPSQCCNPEFWQQNGKVLGSATGRGTTWFVQLQQTQGALRHYRRGGLFGKLVADSYWFTGWEKTRSYQEFMLLNHLRDAGVNVPRPIAARVQKHGLLYKADLLSEKVPNARDLVSILQESPISDELYRKIGREIRKMHDAQVNHTDLNIHNILIDDQEKVWIIDFDKCYVQIGDSWKQGNLKRLKRSFEKEVCKRGINWSLEAFAIISSYKHEEEGHHHHHH	soluble
MSLQWAKQSEQNVYSNRWFSVNLADVLLPDGRHLDHFLIRMRPVAVATVVNEADEVLLLWRHRFITDSWGWELAAGVVEDGEDVAVAAARELEEETGWRPGPLHHLMSVEPSNGLTDARHHVYWAEEGTYVGHPVDDFESERREWVPLKLVPDLVARGEVPAANMAAALLLLHHLRLGRDQEGHHHHHH	soluble
MSLRAVIRVAFILMDNFSLMSFTAAMDALVTANLMGDAPIFDIVKIGLKGRVAMSDLGIAIPTDLDLSELRARHDLLLVVGGLRVDLKSTPCLRRKLFAAASAGTSLGGLWNGAYFLADARVMGGHTCAVHPDGRAMMADAFPDLRISDRSHVVDLERVTCAGASSSLRMMLEYIRVTKGSSLARAVEEILGCDEHEGHHHHHH	soluble
MSLREAMSKQAMLDAIEAEREVLIGFLQEFVRAASPNPPGDTRAAAAVIQGFLSARGVPNELLGPQESMPNVVSECEGGRAGPRLVYNGHMDVFPVGDGHGWTRDPWSGDIEEGRLHGRGTCDMKTGTAASVIAYAYLYARRAQLAGSVALTAVSDEETGGRWGTRWLLENDTRWRGDCVLNGEPSSLDTIRFSEKGTLRLKFEVLAAGAHGAYVHRSESPTRIAAALIGRLAEVEAIEPSLPAALKAHLQREDVRRALDVAMGEGAADVVTRTTLNVGVLNGGLKINMIPDRCVFEVDIRLPVGTEPDVVLARLEGILAEFPQASMEVQQWHSTPPNVCAHDHPMVDFIADNAQAIVGRRPVAVPSIGSTDCRYWRRSGVPAYVYGPAPGRMAMSNESVDLDEFIAVAKVHAAAGWDYLNGAAEGHHHHHH	soluble
MSLRETIKVGEKAPAFTVAALNGVDSISLSDYKGKIVIVHLWSPTCPHCRETNKVLPGIIGPYSKKANLAYIMIAIDMDTLTLRPVIEEDKLNFAIHGYDPFDGSAKTMMDYEAPGTPCINIVDEKGNLVGVNVTDDQLKKYLKKRFSRNSEGHHHHHH	not soluble
MSLRGALAGMLALGCLTTSTLAFERWTLEARGKSGYDAPKLEWVEGKTINEIKNPTIQYALPKFEGDVFWDTINAKPVVPDSIYGEFVQYGYELFVNTQAVIGPEVADPNMRYSGNNLSCNSCHLGAGTAKYAAPLVDNHANFPQYRNRENSLGTMAARVNGCMQRSMNGYPLPAEGKEMKAFLAYIHWLGQGIPVGAKIEGRSLKTVDRKMVQQNAADVKNGAEVYARDCASCHGAEGEGLRRESKDGKPAGYEFPPLWGSDDTYNTGAGMYRTLKAADFIKSTMPKGAPTLSDKDAYDVAAFINDYSHYRTVKLNRQNDFVDPKVRVPDHDQPGPYGPEGSYIFPDEGKTQMDYKVGPYKGIIKQKPAAKEGHHHHHH	not soluble
MSLRIVKVRTFHVRPRWLFVAVETDKGVIGWGEAVVEGQARVVERMIGDLAEYLAGRDPRRIEHHWQGMYRGAFYRGGAVLCSAISGIDQALWDITARDLGVPVHALLGGAVRDSVRMYGHARGVTDAEFAHAARRSRSAGMTAIKFGLDGPVRALDTVEYVDRQVARVAAVREAVGPAFDIALDFHGRTSPAMARRLAERLSPMGPLFIEEPCLPENVDALAEIARATNVPIAAGERIFTKWGFRELLERRAVSVVQPDLCHAGGISEVRRIAAMAEAHYVALAPHNPLGPVSLAACLQVAASTPNFLIQEYLALDDGADLGAGILAVPFSVENGHIAVPTGPGLGIEVDEAQLMDRVYAGDWTTPRFTHQDGSHGDWEGHHHHHH	not soluble
MSLRKEFPLMNRLKELRKEKNITLVELSEELGIPRSTLNRYENEDSEPKQETWEKLADYYGVSTAYLMGISNQKVSEEKALTAAKKVYQVYLSDDDLGKEIRKALMYFNKNDLDSVLKQAMQQYFTIPAVEWNTEFQSLKNTGFLYSWLEGYLVDRYRKEVKTNHNLITNTYYSIPSIDDVNEYGIFSDEIQIPLTEDFKQIFKVEDLSTKTHEEIKKLFKSDSTLIAYSYESSVDDKLKDDINMILDNARSEILNLKEKYPDKPSRIEQTTVLISKDEDTSFWSRNGSNDYIDELNLSEETKKLFVHLGSVFIEEKKRKSKAKEEGGSHHHHHH	soluble
MSLRLERLNYNKIKIFLTLDDLTDRGLTKEDLWKDSFKVHQLFKDMMNEANTELGFEANGPIAVEVYSLQAQGMVVIVTKNQDADSEDDEYDDDYIEMQVKLDESADIIYQFHSFEDIIQLSESLQRIGITGGTVYHYDGQYFLSLEDLGSHTAEGVVAVLAEYGNPTTLTIYRLQEYGKLIMDGNAVETIQTHFSEGHHHHHH	soluble
MSLRLIATEEAVTFQPVVDALRAHSRTDDASLDMILVRDVYGDEPARPAMIGRLSDVTGERLAEMDSNGVDMHLLSLTAPGVQMFDAETGTRLARIANDLMAQTVAANPTRFAGLGTFAPQDPASAAREIERVATQLRLNGLVINSHTNDLYYDDPFFHPVFEAIEASGLALYIHPRAPSKQIDRAFRDYGMNSAIWGYGIETSTNAVRMILSGLFDRFPRLKIVLGHMGEAIPFWLWRLDYMHGNATTFGGAPKLKLKPSEYFRRNFAITTSGVESHAALRYSIEVLGPENVMWAIDYPYQPMAPAVQFIRTAPIPEDVKAMVAGGNAARIFRITEGHHHHHH	soluble
MSLRLLPQPQQCVLAKGYFIVGKMQLSTPVLSQEWKQFVTEMGGTLTDQSASSINIKLVDAIDNVSVNKEEAYRLTITPKAITVEAVAERGVYWAMQTLYQLKEEKGKKNRLQCATITDWPAFRIRGFMQDVGRSYLSLEELKREIAILSRFKINTFHWHLTENQAWRLESKIFPMLNDSTNMTRMAGKYYTLEEARELTEFCKAHQVLLIPEIDMPGHSAAFIRTFRHDMQSPEGMKILKLLLDEICETFDVPYLHIGTDEVHFTNPQFVPEMVAYVRDKGKKVISWNPGWKYKAGEIDMMQLWSYRGKAQQGIPAIDSRFHYLNHFDTFGDIIALYNSRIYNADMGSDDLAGVIMGIWNDRLIDKEWNMVLENNFYPNMLAIAERSWRGGGTEYFDKQGTILPVDENSEVFRNFEDFESRMLWYKEHLFKGYPFAYVKQTHVKWNITDAFPNEGDLTKVFPPEEELKDSYTYEGKQYGVRPAIGAGIYLRHVWGKIVPAFYKDPQENHTAYAYTYVYSSKTQEVGLWAEFQNYGRSENDLPPLPGKWDYKESRIWINDQEILPPVWSATHLVKSSETALGNENCVARPPLRVHLHKGWNKVLLKLPVGKFSTNEVRLVKWMFTAVFVTPDGDKAVEGLIYSPEKEGHHHHHH	soluble
MSLRMMNKRILKGTLTAIAALMSAHAFAGQEVTVYTAFETDLLAKYKSAFEKENPDIEIKWVRDSTGIMTAKLLAEKDNPRAEVVWGLAGSSMALLKDQGVLKPYTPKGANELRANLNDPQAQQAWYGNDAFFNAVCFNEAVAKQLNLPKPQSWEDLTNPVYKGHIAMPNPASSGTGYMQVSAWLQNMGEDKAWDYMQRLDQNIAHYTHSGSKPCVQAGMGEVAIGISMATRGAKLKTQGAPLDVIVPNGIGWESEAVGLVKESDAAKRVVDWSVSKAANELYIESYPIVGHQDVSKQVPNYPNVEKVMAKMDFTQMGVDRARVLQTWSEKFDAKSEPKEGHHHHHH	soluble
MSLRNDPTGVTHAIRLDNDIFKLNVYIKNIDTSKSNLRYTEGYLQSLTNILTRAKEIAIQGASGTYESDDKKMISKEVNALLEDVVAIANAKGPDGYSIFSGTKIDSEAFKVTRENKISKTSKDGAGPQIIKVEYNGNQAEKKTEVYNDIHMSNNYPGNVIFFLQNQNIISSINTNGFAVKENTKIYIDNIEIGLTAGDTALDIVAKINESSAPVEASIDPVLNSLSIKTTTPHQIWITEEKESNVLQTLGILTKNNDTKLPPYNLSSSTEVRSRSIFDALIELRDTLYNNKEELVGSRSLAEIDESLKRLLISVADLGAKENRLDRSYERISKEAADMKEDMIQYTDLDVTKAITNLNMASLAYQVSIGISAKIMQTTLLDFIKEGHHHHHH	soluble
